For assay [1], the target named is T1, murine basigin extracellular domain, murine Fc tagged (murine).
T1 construct: also called mBsg ECD; murine basigin (ELISA antigen)
T1 chain: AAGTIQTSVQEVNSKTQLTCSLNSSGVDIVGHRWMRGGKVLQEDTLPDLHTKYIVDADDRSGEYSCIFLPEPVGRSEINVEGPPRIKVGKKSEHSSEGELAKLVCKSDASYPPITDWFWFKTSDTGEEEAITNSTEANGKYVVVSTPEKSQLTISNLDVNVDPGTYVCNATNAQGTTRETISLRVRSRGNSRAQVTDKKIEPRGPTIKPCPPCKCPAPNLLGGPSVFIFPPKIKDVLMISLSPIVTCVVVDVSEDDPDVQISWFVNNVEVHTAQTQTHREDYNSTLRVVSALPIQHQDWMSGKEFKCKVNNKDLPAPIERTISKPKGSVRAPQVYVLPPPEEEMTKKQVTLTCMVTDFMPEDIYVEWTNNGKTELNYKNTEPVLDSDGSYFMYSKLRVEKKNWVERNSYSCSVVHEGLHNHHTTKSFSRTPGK
As to the kind of experiment: competitive ELISA on coated murine basigin against biotinylated bispecific antibody. The procedure: Nunc 96-well Maxisorp immunoplates were coated overnight at 4° C. with antigen (2 μg/ml) and blocked for 1 hour at room temperature with blocking buffer PBST. Serial dilutions of bivalent or bispecific antibodies were subsequently added to the plates with a sub-saturating concentration of biotinylated bispecific antibody at room temperature for 1 hour. Plates were washed with wash buffer (PBS with 0.05% Tween 20) and incubated for 30 minutes with horseradish peroxidase (HRP)-conjugated streptavidin, and developed with tetramethylbenzidine (TMB) substrate. Absorbance was measured spectrophotometrically at 650 nm.
In general terms: In an ELISA, binding on a coated surface is turned into a signal by an enzyme label.

The target of assay [2] is murine basigin extracellular domain, murine Fc tagged (murine). Described as above.
Assay [3] addresses T1, murine basigin extracellular domain, …. As to the kind of experiment: Biacore; 'Binding affinity (nM)'; form of the antigen not stated.
The target of the next assay is T2, murine Glut1 (on cells) (murine, UniProt P17809 1-492).
T2 construct: whole, on cells; also called glucose transporter 1; Slc2a1
T2 sequence (looked up): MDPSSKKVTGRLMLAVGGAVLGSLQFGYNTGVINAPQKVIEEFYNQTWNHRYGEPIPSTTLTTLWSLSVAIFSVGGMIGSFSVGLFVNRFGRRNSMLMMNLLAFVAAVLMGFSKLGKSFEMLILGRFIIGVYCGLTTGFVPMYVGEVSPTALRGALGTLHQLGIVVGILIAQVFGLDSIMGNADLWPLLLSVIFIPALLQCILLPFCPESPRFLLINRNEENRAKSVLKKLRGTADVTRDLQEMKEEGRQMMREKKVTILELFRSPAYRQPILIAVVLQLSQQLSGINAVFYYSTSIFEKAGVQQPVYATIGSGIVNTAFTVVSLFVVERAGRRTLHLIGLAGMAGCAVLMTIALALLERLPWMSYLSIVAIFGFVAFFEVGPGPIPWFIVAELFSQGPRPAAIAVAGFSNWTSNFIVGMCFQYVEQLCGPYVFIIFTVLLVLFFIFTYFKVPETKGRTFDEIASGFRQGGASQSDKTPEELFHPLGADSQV
Put plainly: flow cytometry (MFI) on HEK293 cells stably expressing Glut1; bivalent (monospecific) anti-Glut1, not the bispecific anti-Glut1/BACE1. The procedure:
Purified antibodies were screened on 293 cells transfected with the corresponding antigens. Cells were collected from flasks/dishes, washed with phosphate-buffered saline (PBS), and added to 96-well U-bottom plates (BD Falcon 353077, BD, Franklin Lakes, N.J.) at 1,000,000 cells per well. Samples were added to cells (100 μL/well) and incubated at 4° C. for 30-60 minutes. Plates were then centrifuged (1200 rpm, 5 minutes, 4° C.) and washed twice with PBS/1% FBS (200 μl per well). R-Phycoerythrin-conjugated Ziege anti-human IgG Fc (Jackson ImmunoReseach Laboratories Inc. (West Grove, Pa.); 109-116-098; 100 μl diluted in PBS) was then added and the plates incubated at 4° C. (covered) for 30 minutes. After the final wash, the cells were fixed in PBS containing 1% formalin, and read using a FACSCalibur™ flow cytometer (BD Biosciences, San Jose, Calif.). Mean fluorescence intensity (MFI) of each sample was then measured using the FlowJo software (Treestar, Inc., Ashland, Oreg.).

Read-outs that look alike come from different tables or passages of the source.

B1: anti-Bsg^A (antibody, V domains shown)
VH: EVQLVESGGGLVLPGRSMKLSCAASGFTFRTYYMAWVRQAPTKGLEWVASISIGGDNTYYRDSVMGRFTISRDDAKSTLHLQMDNLRSEDTATYYCVRLRGYFDYWGQGVMVTVSS
VL: EIVLTQSPATMPASPGEKVTLTCRASSSIRYIYWYQQKSGTSPKLWIYDTSKLASGVPNRFSGSGSGTSYSLTISSMETEDTATYYCQQGRSYPLTFGSGTKLEIK
notes: also called bivalent (monospecific) anti-Bsg^A
B1: the IC50 in assay [1] came to 7.1 nM; in assay [2] it was 106 nM. For the same molecule, in assay [3], the Kd was found to be 13.5 nM.

B2: anti-Bsg^B (antibody, V domains shown)
VH: EVQLVESGGGLVQPGRSLKLSCVASGFTFNNYWMTWIRQAPGKGLEWFASITNTGGSTYYPDSVKGRFTISRDNAQSTLYLQTNSLRPEDTATYYCARRDGSYYPYYWYFDLWGPGTTVTVSS
VL: NTVMTQSPTSMFISVGDRVTMNCKASRSVGTNVDWYQQKTGQSPTLLFYGASNRYIGVPDRFTGSGSGTDFTLTISNMQAEDLAVYYCLQYNYNWAFGGGTKLELK
notes: also called bivalent (monospecific) anti-Bsg^B
Turning to B2, the IC50 in assay [1] was 17.5 nM; in assay [2] it was 127 nM. In assay [3], this molecule came in with a Kd of 102 nM.

B3: anti-Glut1 antibody (antibody, V domains shown)
VH: QVQLQQPGSVLVRPGASVKLSCKASGYTFTGSWLHWAKQRPGQGLEWIGEIHPYSGNTNYNERFKGKATLTVDTPSSTAYVDLRSLTFEDSAVYYCAKEGGWFLRIYGMDYWGQGTSVTVSS
VL: DIVLTQSPSSLSASLGDTITITCHASQNINVWLSWYQQKPGNIPKLLIYKASNLHSGVPSRFSGSGSGTGFTLTISSLQPEDIATYYCQQGQTFPYTFGGGTRLEIK
notes: Raised by DNA immunization with hGlut1 cDNA; also called bivalent (monospecific) anti-Glut1
Regarding B3, a half-maximal response in the assay with murine Glut1 (on cells) (EC50) required 0.6 µg/mL.

As a reminder, the IC50 is the concentration needed to halve the response being measured. A higher IC50 goes with weaker potency. By Kd is commonly meant the equilibrium constant for the complex coming apart. A low value points to a tighter complex. Broadly, the EC50 is the concentration that produces a half-maximal response.

These data come from patent publication US20180000964A1 (Genentech, published 2018).
